Laboratory results: EP4339209A1 (MediMabbio Inc., dated 2024)

B1: anti-GITR 51B VH0/VL1 antibody (human IgG1, kappa) (antibody, V domains shown)
VH: QVQLQQSGAELMKPGASVKLSCKTTGYRFTGYWIEWVKQRPGHGLEWIGEILPGSGATYYSENFKGKATFTADTSSNTAYMQVSSLTTGDSAIYYCARKGGYYAMDYWGQGTSVTVSS
VL: QIVLTQSPAIMSASLGERVTMSCTASSSVSSSYFHWYQQKPGSAPKLWIYSTSNLASGVPDRFSGSGSGTDYTLTVSSLQAEDVATYYCHLYHRSPRTFGGGTTVDIKR
B2: anti-GITR 51B VH4/VL4 humanized antibody (human IgG1, kappa) (antibody, V domains shown)
VH: QVQLVQSGAEVKKPGASVKVSCKTTGYRFTGYWINWVRQPPGKGLEWIGEILPGSGATYYSENFKGKVTITADTSTDTAYMELSSLRSEDTAIYYCARKGGYYAMDYWGQGTLVTVSS
VL: EIVLTQSPATLSLSPGERATLSCTASSSVSSSYFHWYQQKPGKAPKLWIYSTSNLQSGVPDRFSGSGSGTDYTLTISSLQAEDVATYYCHLYHRSPRTFGGGTKVEIKR
B3: anti-GITR 51B VH5/VL1 humanized antibody (human IgG1, kappa) (antibody, V domains shown)
VH: QVQLVQSGAEVKKPGASVKVSCKTTGYRFTGYWIDWVRQPPGKGLEWIGEILPGSGATYYSENFKGKVTITADTSTDTAYMELSSLRSEDTAIYYCARKGGYYAMDYWGQGTLVTVSS
VL: QIVLTQSPAIMSASLGERVTMSCTASSSVSSSYFHWYQQKPGSAPKLWIYSTSNLASGVPDRFSGSGSGTDYTLTVSSLQAEDVATYYCHLYHRSPRTFGGGTTVDIKR
B4: anti-GITR 51B VH5/VL4 humanized antibody (human IgG1, kappa) (antibody, V domains shown)
VH: QVQLVQSGAEVKKPGASVKVSCKTTGYRFTGYWIDWVRQPPGKGLEWIGEILPGSGATYYSENFKGKVTITADTSTDTAYMELSSLRSEDTAIYYCARKGGYYAMDYWGQGTLVTVSS
VL: EIVLTQSPATLSLSPGERATLSCTASSSVSSSYFHWYQQKPGKAPKLWIYSTSNLQSGVPDRFSGSGSGTDYTLTISSLQAEDVATYYCHLYHRSPRTFGGGTKVEIKR
B5: anti-GITR 51B VH5/VL5 humanized antibody (human IgG1, kappa) (antibody, V domains shown)
VH: QVQLVQSGAEVKKPGASVKVSCKTTGYRFTGYWIDWVRQPPGKGLEWIGEILPGSGATYYSENFKGKVTITADTSTDTAYMELSSLRSEDTAIYYCARKGGYYAMDYWGQGTLVTVSS
VL: EIVLTQSPATLSLSPGERATLSCTASSSVSSSYFHWYQQKPGKAPKLWIYSTSNLESGVPDRFSGSGSGTDYTLTISSLQAEDVATYYCHLYHRSPRTFGGGTKVEIKR
B6: anti-GITR 51B VH2/VL4 humanized antibody (human IgG1, kappa) (antibody, V domains shown)
VH: QVQLVQSGAEVKKPGASVKLSCKTTGYRFTGYWIEWVRQPPGKGLEWIGEILPGSGATYYSENFKGKATITADTSTNTAYMEVSSLRSEDTAIYYCARKGGYYAMDYWGQGTLVTVSS
VL: EIVLTQSPATLSLSPGERATLSCTASSSVSSSYFHWYQQKPGKAPKLWIYSTSNLQSGVPDRFSGSGSGTDYTLTISSLQAEDVATYYCHLYHRSPRTFGGGTKVEIKR
B7: anti-GITR 51B VH1/VL4 humanized antibody (human IgG1, kappa) (antibody, V domains shown)
VH: QVQLVQSGAELKKPGASVKLSCKTTGYRFTGYWIEWVRQPPGKGLEWIGEILPGSGATYYSENFKGKATITADTSTNTAYMEVSSLRSGDSAIYYCARKGGYYAMDYWGQGTSVTVSS
VL: EIVLTQSPATLSLSPGERATLSCTASSSVSSSYFHWYQQKPGKAPKLWIYSTSNLQSGVPDRFSGSGSGTDYTLTISSLQAEDVATYYCHLYHRSPRTFGGGTKVEIKR
B8: anti-GITR 51B VH1/VL5 humanized antibody (human IgG1, kappa) (antibody, V domains shown)
VH: QVQLVQSGAELKKPGASVKLSCKTTGYRFTGYWIEWVRQPPGKGLEWIGEILPGSGATYYSENFKGKATITADTSTNTAYMEVSSLRSGDSAIYYCARKGGYYAMDYWGQGTSVTVSS
VL: EIVLTQSPATLSLSPGERATLSCTASSSVSSSYFHWYQQKPGKAPKLWIYSTSNLESGVPDRFSGSGSGTDYTLTISSLQAEDVATYYCHLYHRSPRTFGGGTKVEIKR
B9: anti-GITR 51B VH4/VL1 humanized antibody (human IgG1, kappa) (antibody, V domains shown)
VH: QVQLVQSGAEVKKPGASVKVSCKTTGYRFTGYWINWVRQPPGKGLEWIGEILPGSGATYYSENFKGKVTITADTSTDTAYMELSSLRSEDTAIYYCARKGGYYAMDYWGQGTLVTVSS
VL: QIVLTQSPAIMSASLGERVTMSCTASSSVSSSYFHWYQQKPGSAPKLWIYSTSNLASGVPDRFSGSGSGTDYTLTVSSLQAEDVATYYCHLYHRSPRTFGGGTTVDIKR
B10: anti-GITR 51B VH3/VL5 humanized antibody (human IgG1, kappa) (antibody, V domains shown)
VH: QVQLVQSGAEVKKPGASVKVSCKTTGYRFTGYWIEWVRQPPGKGLEWIGEILPGSGATYYSENFKGKVTITADTSTDTAYMELSSLRSEDTAIYYCARKGGYYAMDYWGQGTLVTVSS
VL: EIVLTQSPATLSLSPGERATLSCTASSSVSSSYFHWYQQKPGKAPKLWIYSTSNLESGVPDRFSGSGSGTDYTLTISSLQAEDVATYYCHLYHRSPRTFGGGTKVEIKR
B11: anti-GITR 51B VH1/VL0 antibody (human IgG1, kappa) (antibody, V domains shown)
VH: QVQLVQSGAELKKPGASVKLSCKTTGYRFTGYWIEWVRQPPGKGLEWIGEILPGSGATYYSENFKGKATITADTSTNTAYMEVSSLRSGDSAIYYCARKGGYYAMDYWGQGTSVTVSS
VL: QIVLTQSPAIMSASLGERVTMTCTASSSVSSSYFHWYQQKPGSSPKLWIYSTSNLASGVPARFSGSGSGTSYSLTVSSLEAEDAATYYCHLYHRSPRTFGGGTTLDIKR
B12: anti-GITR 51B VH2/VL5 humanized antibody (human IgG1, kappa) (antibody, V domains shown)
VH: QVQLVQSGAEVKKPGASVKLSCKTTGYRFTGYWIEWVRQPPGKGLEWIGEILPGSGATYYSENFKGKATITADTSTNTAYMEVSSLRSEDTAIYYCARKGGYYAMDYWGQGTLVTVSS
VL: EIVLTQSPATLSLSPGERATLSCTASSSVSSSYFHWYQQKPGKAPKLWIYSTSNLESGVPDRFSGSGSGTDYTLTISSLQAEDVATYYCHLYHRSPRTFGGGTKVEIKR
B13: anti-GITR 51B VH1/VL1 humanized antibody (human IgG1, kappa) (antibody, V domains shown)
VH: QVQLVQSGAELKKPGASVKLSCKTTGYRFTGYWIEWVRQPPGKGLEWIGEILPGSGATYYSENFKGKATITADTSTNTAYMEVSSLRSGDSAIYYCARKGGYYAMDYWGQGTSVTVSS
VL: QIVLTQSPAIMSASLGERVTMSCTASSSVSSSYFHWYQQKPGSAPKLWIYSTSNLASGVPDRFSGSGSGTDYTLTVSSLQAEDVATYYCHLYHRSPRTFGGGTTVDIKR
B14: anti-GITR 51B VH2/VL1 humanized antibody (human IgG1, kappa) (antibody, V domains shown)
VH: QVQLVQSGAEVKKPGASVKLSCKTTGYRFTGYWIEWVRQPPGKGLEWIGEILPGSGATYYSENFKGKATITADTSTNTAYMEVSSLRSEDTAIYYCARKGGYYAMDYWGQGTLVTVSS
VL: QIVLTQSPAIMSASLGERVTMSCTASSSVSSSYFHWYQQKPGSAPKLWIYSTSNLASGVPDRFSGSGSGTDYTLTVSSLQAEDVATYYCHLYHRSPRTFGGGTTVDIKR
B15: anti-GITR 51B VH4/VL5 humanized antibody (human IgG1, kappa) (antibody, V domains shown)
VH: QVQLVQSGAEVKKPGASVKVSCKTTGYRFTGYWINWVRQPPGKGLEWIGEILPGSGATYYSENFKGKVTITADTSTDTAYMELSSLRSEDTAIYYCARKGGYYAMDYWGQGTLVTVSS
VL: EIVLTQSPATLSLSPGERATLSCTASSSVSSSYFHWYQQKPGKAPKLWIYSTSNLESGVPDRFSGSGSGTDYTLTISSLQAEDVATYYCHLYHRSPRTFGGGTKVEIKR
B16: anti-GITR 51B VH3/VL1 humanized antibody (human IgG1, kappa) (antibody, V domains shown)
VH: QVQLVQSGAEVKKPGASVKVSCKTTGYRFTGYWIEWVRQPPGKGLEWIGEILPGSGATYYSENFKGKVTITADTSTDTAYMELSSLRSEDTAIYYCARKGGYYAMDYWGQGTLVTVSS
VL: QIVLTQSPAIMSASLGERVTMSCTASSSVSSSYFHWYQQKPGSAPKLWIYSTSNLASGVPDRFSGSGSGTDYTLTVSSLQAEDVATYYCHLYHRSPRTFGGGTTVDIKR

What was measured:
[1] = target: recombinant human GITR (Cat No. 13643-H08H, Lot No. LC12JA2509, Sino Biological) (human) (UniProt Q9Y5U5); experiment: SPR Biacore 8K, single-cycle kinetics, IgG in supernatant captured on Protein A, GITR as analyte
[2] = target: recombinant human GITR (Cat No. 13643-H08H, Lot No. LC12JA2509, Sino Biological) (human) (UniProt Q9Y5U5); experiment: SPR Biacore 8K, multi-cycle kinetics, purified IgG captured on Protein A, GITR as analyte

Kd [1] [nM]	Relative KD (fold vs VH0/VL0) [1]	koff [1] [s⁻¹]	kon [1] [M⁻¹ s⁻¹]	Kd [2] [nM]	Relative KD (fold vs VH0/VL0) [2]	koff [2] [s⁻¹]	kon [2] [M⁻¹ s⁻¹]	Binder
0.527	0.9	0.000338	642000					B1
0.987	1.7	0.00053	537000	0.829	1.45	0.000488	590000	B2
1.94	3.4	0.000742	382000					B3
1.37	2.4	0.00149	1.08e+06					B4
3.32	5.9	0.000975	294000					B5
1.15	2	0.000577	502000					B6
1.31	2.3	0.000616	469000					B7
1.41	2.5	0.000628	445000					B8
1.05	1.9	0.00066	627000					B9
0.916	1.6	0.000507	554000	0.778	1.37	0.000456	586000	B10
1.08	1.9	0.000654	603000					B11
1.33	2.3	0.000635	477000					B12
1.32	2.3	0.000949	721000					B13
1.1	1.9	0.000734	665000					B14
1.26	2.2	0.000599	474000					B15
0.693	1.2	0.000543	784000	0.606	1.06	0.000482	796000	B16
